# Positions count from the first letter of the chain named. In names and notes the source's numbering stands.
# B1: MTHase (maltooligosyltrehalose trehalohydrolase) from S. solfataricus ATCC 35092 (Saccharolobus solfataricus P2) (protein)
# chain: MTFGYKLDEDGVTFNLWAPYQRKVKLKILNRGIYEMERDDKGYFTITLDNVRVGDRYKYILDDNSEVPDPASRYQPEGVHGYSEIISPDFEWDDENSVKVKREDLVIYELHIGTFTSEGTFEGVIKKLNYLKELGVTAIEIMPIAQFPGKKDWGYDGVYLYAVQNSYGGPSGFRKLVNEAHKLGLAVILDVVYNHVGPEGNYMVKLGPYFSEKYKTPWGLTFNFDDAGSDEVRKFILENVEYWINEFHVDGFRLDAVHAIIDNSPKHILEDIADVVHKYDKIVIAESDLNDPRVVNPKEKCGYNIDAQWVDDFHHAIHAFLTGERQGYYSDFGSIGDIVKSYKDVFIYDGKYSNFRRKTHGKSVGDLDGCKFVVYIQNHDQVGNRGGGERLIKLVDKESYKIAAALYILSPYIPMIFMGEEYGEENPFYYFSDFSDPKLIQGVREGRRRENGQETDPQSDCTFNDSKLSWKINDDILSFYKSLIKIRKEYGLACNRKLSVENGNYWLTVKGNGCLAVYVFSKSVIEMKYSGTLVLSSNSSFPSQITESKYELDKGFALYKL
# notes: expressed from pET-15b-ΔH-treZ in E. coli BL21-CodonPlus (DE3)-RIL; heat treatment 80 °C, Q-Sepharose; docking model was the KM1 enzyme (PDB 1EH9), not the assayed protein
# B2: MTHase (maltooligosyltrehalose trehalohydrolase) from S. solfataricus ATCC 35092 (Saccharolobus solfataricus P2; Y155F) (protein)
# chain: B1 chain with Y155F
# notes: as for B1
# B3: MTHase (maltooligosyltrehalose trehalohydrolase) from S. solfataricus ATCC 35092 (Saccharolobus solfataricus P2; D156A) (protein)
# chain: B1 chain with D156A
# notes: as for B1
# B4: MTHase (maltooligosyltrehalose trehalohydrolase) from S. solfataricus ATCC 35092 (Saccharolobus solfataricus P2; H195A) (protein)
# chain: B1 chain with H195A
# notes: as for B1
# B5: MTHase (maltooligosyltrehalose trehalohydrolase) from S. solfataricus ATCC 35092 (Saccharolobus solfataricus P2; E450A) (protein)
# chain: B1 chain with E450A
# notes: as for B1
# B6: MTHase (maltooligosyltrehalose trehalohydrolase) from S. solfataricus ATCC 35092 (Saccharolobus solfataricus P2; Y155A) (protein)
# chain: B1 chain with Y155A
# notes: as for B1
# B7: MTHase (maltooligosyltrehalose trehalohydrolase) from S. solfataricus ATCC 35092 (Saccharolobus solfataricus P2; R447A) (protein)
# chain: B1 chain with R447A
# notes: as for B1
# Substrate: OC[C@H]1O[C@H](O[C@H]2O[C@H](CO)[C@@H](O[C@H]3O[C@H](CO)[C@@H](O[C@H]4O[C@H](CO)[C@@H](O[C@H]5O[C@H](CO)[C@@H](O)[C@H](O)[C@H]5O)[C@H](O)[C@H]4O)[C@H](O)[C@H]3O)[C@H](O)[C@H]2O)[C@H](O)[C@@H](O)[C@@H]1O
# Assay: initial rates of G3T hydrolysis, Michaelis-Menten fit
# Format: biochemical, Saccharolobus solfataricus
# Settings: 50 mM citrate-phosphate pH 5, 60 °C
# Excerpt: initial rates of […] hydrolysis, Michaelis-Menten fit on […] (maltooligosyltrehalose trehalohydrolase) from S. solfataricus ATCC 35092
Protein,Km [mM],kcat [s⁻¹],kcat/Km [M⁻¹ s⁻¹]
B1,5.22 ± 0.59,947 ± 40,182000 ± 14000
B2,5.02 ± 0.34,27.8 ± 0.7,5540 ± 250
B3,12.9 ± 2.3,608 ± 62,47300 ± 3700
B4,4.18 ± 0.31,2.15 ± 0.05,510 ± 30
B5,7.48 ± 0.70,1070 ± 50,144000 ± 8000
B6,39.2 ± 2.8,44.8 ± 1.7,1140 ± 40
B7,10.7 ± 1.3,303 ± 16,28200 ± 2000

# Source: article PMC3716775, “Interaction between Trehalose and MTHase from Sulfolobus solfataricus Studied by Theoretical Computation and Site-Directed Mutagenesis” (PLoS ONE, 2013)
